Laboratory results taken from patent publication US20260199502A1, “BINDING MOLECULE” (priority 2022, published 2026).

B1: IBIIICI CDR graft scFv variant NG (wt): original humanized IBIIICI CDR graft scFv, SEQ ID NO:54, NG at positions 62-63 of VH (protein)
scFv: QVQLVQSGAEVKKPGASVKVSCKASGFNIKDFNIHWVRQAPGQGLEWIGRIDPENGDAEYVPKFQGRVTMTRDTSTSTVYMELSSLRSEDTAVYYCTTGSYDLDVEYWGQGTLVTVSSGGGGSGGGGSGGGGSGGGGSDIQMTQSPSSLSASVGDRVTITCHASQNINVWLSWYQQKPGKAPKLLIYKASTLHTGVPSRFSGSGSGTDFTLTISSLQPEDFATYYCQQGQSYPLTFGQGTKLEIK
B2: IBIIICI CDR graft scFv variant DG: humanized scFv point mutated variant, SEQ ID NO:52 (protein)
scFv: QVQLVQSGAEVKKPGASVKVSCKASGFNIKDFNIHWVRQAPGQGLEWIGRIDPEDGDAEYVPKFQGRVTMTRDTSTSTVYMELSSLRSEDTAVYYCTTGSYDLDVEYWGQGTLVTVSSGGGGSGGGGSGGGGSGGGGSDIQMTQSPSSLSASVGDRVTITCHASQNINVWLSWYQQKPGKAPKLLIYKASTLHTGVPSRFSGSGSGTDFTLTISSLQPEDFATYYCQQGQSYPLTFGQGTKLEIK
B3: IBIIICI CDR graft scFv variant GG: humanized scFv point mutated variant, SEQ ID NO:50 (protein)
scFv: QVQLVQSGAEVKKPGASVKVSCKASGFNIKDFNIHWVRQAPGQGLEWIGRIDPEGGDAEYVPKFQGRVTMTRDTSTSTVYMELSSLRSEDTAVYYCTTGSYDLDVEYWGQGTLVTVSSGGGGSGGGGSGGGGSGGGGSDIQMTQSPSSLSASVGDRVTITCHASQNINVWLSWYQQKPGKAPKLLIYKASTLHTGVPSRFSGSGSGTDFTLTISSLQPEDFATYYCQQGQSYPLTFGQGTKLEIK
B4: IBIIICI CDR graft scFv variant SG: humanized scFv point mutated variant, SEQ ID NO:49 (protein)
scFv: QVQLVQSGAEVKKPGASVKVSCKASGFNIKDFNIHWVRQAPGQGLEWIGRIDPESGDAEYVPKFQGRVTMTRDTSTSTVYMELSSLRSEDTAVYYCTTGSYDLDVEYWGQGTLVTVSSGGGGSGGGGSGGGGSGGGGSDIQMTQSPSSLSASVGDRVTITCHASQNINVWLSWYQQKPGKAPKLLIYKASTLHTGVPSRFSGSGSGTDFTLTISSLQPEDFATYYCQQGQSYPLTFGQGTKLEIK
B5: IBIIICI CDR graft scFv variant QG: humanized scFv point mutated variant, SEQ ID NO:51 (protein)
scFv: QVQLVQSGAEVKKPGASVKVSCKASGFNIKDFNIHWVRQAPGQGLEWIGRIDPEQGDAEYVPKFQGRVTMTRDTSTSTVYMELSSLRSEDTAVYYCTTGSYDLDVEYWGQGTLVTVSSGGGGSGGGGSGGGGSGGGGSDIQMTQSPSSLSASVGDRVTITCHASQNINVWLSWYQQKPGKAPKLLIYKASTLHTGVPSRFSGSGSGTDFTLTISSLQPEDFATYYCQQGQSYPLTFGQGTKLEIK
B6: IBIIICI CDR graft scFv variant NA: humanized scFv point mutated variant, SEQ ID NO:53 (protein)
scFv: QVQLVQSGAEVKKPGASVKVSCKASGFNIKDFNIHWVRQAPGQGLEWIGRIDPENADAEYVPKFQGRVTMTRDTSTSTVYMELSSLRSEDTAVYYCTTGSYDLDVEYWGQGTLVTVSSGGGGSGGGGSGGGGSGGGGSDIQMTQSPSSLSASVGDRVTITCHASQNINVWLSWYQQKPGKAPKLLIYKASTLHTGVPSRFSGSGSGTDFTLTISSLQPEDFATYYCQQGQSYPLTFGQGTKLEIK
B7: IBIIICI mouse scFv: known ancestral mouse scFv binding the peptide tag moiety, SEQ ID NO:25 (protein, listed as Mus musculus)
scFv: EVRLLQSGAALVRPGASVKLSCTASGFNIKDFNIHWVKQRPEQGLEWIGRIDPENGDAEYVPKFQVRATMTTDTSSNTVYLHLSSLTSGDTAVYYCTTGSYDLDVEYWGQGTTLTVSSGGGGSGGGGSGGGGSGGGGSELQMTQSPSSLSASLGDTVTITCHASQNINVWLSWYQQRPGNIPKLLIYKASTLHTGVPSRFRGSGSGTGFTLTISSLQPEDIATYYCQQGQSYPLTFGAGTKLELK

What was measured:
[1] = Melting temperature (Tm) determination by nanoDSF; assay type: physicochemical; conditions: inflection point #1, 1.0 mg/ml in PBS, 20-95° C. at 1° C./min
Method: In order to evaluate the stability of the purified scFv variants, the melting temperatures were determined by nanoDSF using a Prometheus NT.48 instrument (NanoTemper Inc). The nanoDSF technology measures the intrinsic fluorescence of a protein while it is being subjected to thermal denaturation, thereby characterizing the unfolding of the protein under native conditions.
The six purified IBIIICI CDR graft scFv variants were diluted to 1.0 mg/ml in PBS and loaded into a high sensitivity capillary (NanoTemper, #PR-C006) through capillary force. A melting temperature ramp was set to between 20° C. and 95° C., with heating at 1° C./min. Tryptophan emission was measured at 330 nm and 350 nm, and the calculated ratio was plotted against temperature to obtain melting curves for each variant. Tm values were deduced using the software PR ThermoControl (NanoTemper Inc).

[2] = target: panel of 14 peptides (UU0024, UU0070-UU0078, UU0080-UU0083) comprising the tag moiety; assay: SPR affinity of captured scFv against a peptide panel (Example 3); assay type: binding; conditions: SPR single cycle kinetics, peptides 0.16 nM to 100 nM; to most target peptides in the tested panel
Method: Affinity measurements of the IBIIICI mouse scFv and IBIIICI CDR graft scFv variants obtained as described in Examples 1-2 were performed by SPR using a Biacore T200 instrument (GE Healthcare) and single cycle kinetics. Anti-FLAG M2 antibody (Sigma-Aldrich) was immobilized onto a Series S CM5 chip by primary amine coupling using NHS-EDC chemistry according to the manufacturer's instruction, allowing capture of the respective scFv through the FLAG tags provided by the expression vector. A 5-fold dilution series comprising of five concentrations (0.16 nM to 100 nM) of different peptides (Table 2) was sequentially injected over the flow cells, allowing binding to the captured scFv. Following a dissociation phase, regeneration of the surface was accomplished under acidic conditions using 10 mM glycine-HCl at pH 2.1. By subtracting the response curve of a surface having an anti-FLAG antibody immobilized thereto (the reference surface), response unit sensorgrams for all peptides were obtained. Data was analyzed using BIAeval v.3.1 (GE Healthcare).

Molecule	Tm [1] [°C]	binding affinity [2]	Tm ([1]; listed as IBIIICI CDR graft scFv SG) [°C]	Tm ([1]; listed as IBIIICI CDR graft scFv NA) [°C]
B1	63.4	low nanomolar	–	–
B2	62.4	–	–	–
B3	62.6	–	–	–
B4	64.3	–	64	–
B5	62.2	–	–	–
B6	60.8	–	–	61
B7	–	low nanomolar	–	–
